Reference: the supplement of paper PMC10567573

B1: PPP2R2C (parent)
chain: YSSSKGSLRLCDMRAAALCDKHSK

Variants of: B1
Assay: protein stability index of a GFP-peptide fusion (GPS, HEK-293T) (PSI 1-6); higher = more stable
Settings: c terminus: a fixed tail appended
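Note: lentivirally expressed fusions sorted by FACS into six bins by GFP to DsRed ratio, PSI derived from sequencing read proportions per bin multiplied by bin number.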

Variant	protein stability index
YSSSKGSLRLCDMRAAALCDLHSK	1.29
YSSSKVSLRLCDMRAAALCDKHSK	2.21
YSSSKYSLRLCDMRAAALCDKHSK	1.52
YSSSKGSLRLCDMRAAMLCDKHSK	1.79
YSSSKGSLRLCDMRAATLCDKHSK	1.52
YSSSKGSLRLCDMRAAELCDKHSK	2.16
YSSSKGSLRLCDMRAAALLDKHSK	1.55
YSSSKGSLRLCDMRAAALIDKHSK	2.03
YSSSKGSLRLCDMRAAALCAKHSK	1.64
YSSSKGSLRLCDMRAAALCDKCSK	2.17
YSSSKGSLRLCDMRAAALCDKWSK	2.05
YSSSKGSLRLCDTRAAALCDKHSK	2.21
YSSSKGSLRLCDPRAAALCDKHSK	2.21
YSSSKGSLRLCDFRAAALCDKHSK	1.46
YSSSKGSLRLCDQRAAALCDKHSK	1.83
YSSSKGSLRLCDDRAAALCDKHSK	2.37
RSSSKGSLRLCDMRAAALCDKHSK	3.81
VSSSKGSLRLCDMRAAALCDKHSK	3.56
ESSSKGSLRLCDMRAAALCDKHSK	4.47
YSSSKGSLRLCDMHAAALCDKHSK	2.34
YSSSKGSLRLCDMYAAALCDKHSK	2.45
YSSSKGSLRLCDMREAALCDKHSK	2.61

Variant	protein stability index
YSSSKGSLRLCDMRTAALCDKHSK	2.09
YSSSKGSLRLCDMRNAALCDKHSK	2.54
YSSSKGSLRLCDMRVAALCDKHSK	1.6
YSSSKGSLRQCDMRAAALCDKHSK	3.79
YSSSKGSLRECDMRAAALCDKHSK	4.47
YSSSKGSLRFCDMRAAALCDKHSK	2.22
YWSSKGSLRLCDMRAAALCDKHSK	1.89
YSSSKGSLRLKDMRAAALCDKHSK	3.07
YSSSKGSLRLQDMRAAALCDKHSK	2.97
YSSSKGSLRLPDMRAAALCDKHSK	4.05
YSSSKGSVRLCDMRAAALCDKHSK	1.95
YSSSKGSQRLCDMRAAALCDKHSK	1.89
YSSSKGSGRLCDMRAAALCDKHSK	2.19
YSSSKGSWRLCDMRAAALCDKHSK	2.39
YSSSKGSLRLCGMRAAALCDKHSK	1.93
YSSSKGSLRLCEMRAAALCDKHSK	2.71
YSSSKGSLRLCHMRAAALCDKHSK	3.2
YSSSKGSLRLCAMRAAALCDKHSK	2.32
YSSSRGSLRLCDMRAAALCDKHSK	1.85
YSSSIGSLRLCDMRAAALCDKHSK	2.19
YSSSQGSLRLCDMRAAALCDKHSK	2.12
YSSSKGHLRLCDMRAAALCDKHSK	2.92

Variant	protein stability index
YSSSKGDLRLCDMRAAALCDKHSK	2.24
YSSSKGRLRLCDMRAAALCDKHSK	2.04
YSSSKGGLRLCDMRAAALCDKHSK	4.06
YSSSKGSLRLCDMRAAALCDKHSL	2.13
YSSSKGSLRLCDMRAAALCDKHSS	1.65
YSSSKGSLRLCDMRAAALCDKHSN	2.15
YSSSKGSLRLCDMRAAALCDKHPK	1.42
YSSSKGSLRLCDMRAAALCDKHGK	1.76
YSSSKGSLFLCDMRAAALCDKHSK	2.37
YSSSKGSLLLCDMRAAALCDKHSK	3.61
YSSSKGSLGLCDMRAAALCDKHSK	1.9
YSASKGSLRLCDMRAAALCDKHSK	2.93
YSSSKGSLRLCDMRAAAMCDKHSK	1.13
YSSSKGSLRLCDMRAAAHCDKHSK	2.03
YSSSKGSLRLCDMRAAAVCDKHSK	2.02
YSSSKGSLRLCDMRAAAQCDKHSK	2.17
YSSLKGSLRLCDMRAAALCDKHSK	2.62
YSSEKGSLRLCDMRAAALCDKHSK	2.78
YSSSKGSLRLCDMRAEALCDKHSK	2.28
YSSSKGSLRLCDMRASALCDKHSK	2.02
YSSSKGSLRLCDMRATALCDKHSK	1.97
YSSSKGSLRLCDMRAYALCDKHSK	1.63
